Assays:
Type in all cases: biochemical, Quillaja saponaria
[1] = Experiment 6-1: screening of rhamnosidases for derhamnosylation of saponins in treated bark extract (2%), QS-17 2296 to QS-18 2150 (PAR %); conditions: TBE 2%, pH 7.5, 30 degC, 18 h; TIC peak area ratio percent of rhamnosylated starting saponin to derhamnosylated product, LCMS/MS; negative controls 4.876, 5.225
[2] = Experiment 6-3: screening of rhamnosidases for derhamnosylation of saponins in crude bark extract (80%), relative % of Left, Middle and Right Peak by UV HPLC; conditions: CBE 80%, pH 7.4, 30 degC, 19.5 h; for Left Peak: mainly QS-17 family, negative control 27%; for Middle Peak: mainly QS-18 and desglucosyl-QS-17 family, negative control 48%; for Right Peak: mainly QS-21 family, negative control 26%
In short: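 Clarified lysates of expressed rhamnosidase variants were incubated with crude bark extract (pH 7.4, final 80%) at 30 degC with shaking for 19.5 h, then quenched with MeCN+2% AcOH. UV HPLC gave relative % of Left (QS-17), Middle (QS-18/desglucosyl-QS-17) and Right (QS-21) peaks.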

[3] = Experiment 6-1: specificity of rhamnosidases towards other rhamnose residues (C3 saccharide rhamnose, C28 saccharide rhamnose); conditions: TBE 2%, pH 7.5, 30 degC, 18 h; LCMS/MS; negative controls 0.18, 0.17
[4] = Experiment 6-2: screening of rhamnosidases for derhamnosylation of saponins in treated bark extract (25%), relative % of Left, Middle and Right Peak by UV HPLC; conditions: TBE 25%, pH 7.4, 19.5 h; for Left Peak: mainly QS-17 family, negative control 24%; for Middle Peak: mainly QS-18 and desglucosyl-QS-17 family, negative control 50%; for Right Peak: mainly QS-21 family, negative control 26%
[5] = Experiment 6-1: screening of rhamnosidases for derhamnosylation of saponins in treated bark extract (2%), desglucosyl-QS-17 2134 to QS-21 1988 (PAR %); conditions: TBE 2%, pH 7.5, 30 degC, 18 h; TIC peak area ratio percent, LCMS/MS; negative controls 2.719, 2.158
[6] = Experiment 6-1: screening of rhamnosidases for derhamnosylation of saponins in treated bark extract (2%), QS-17 2310 to QS-18 2164 (PAR %); conditions: TBE 2%, pH 7.5, 30 degC, 18 h; TIC peak area ratio percent, LCMS/MS; negative controls 3.061, 2.429

B1: 1052 (protein, listed as Microbacterium testaceum)
chain: MTTDTRVAAVKAELRTDSPFVATPTPRLTWRVETSTPSWRQASAEITDGATSVPLEGAESALVAWPFAPLEPGERREVRVRVTGVDGAVTAWSAPLAVEAGFLAPDEWVAEPIGLADPEREAQPALVQTAFRLDRPVRRALLLWTALGSAEPEINGRAVSDDVLAPGWSATRDRLVHETVDVTDLLVEGDNVVGATLAGAWYTERYGFFTFTDRIYGDQPAFLAQLRVTFADGTVETVAPTGSAWTATGDAEIVTSGIYAGEHQDLRLRAPWSTPDATTSGTDRRWAPARVGVVARPGHENVPLPEARIAEPVRRHESLPVVARLATPSGGEVLDFGQNLVGRLRLRVRGEAGTTVTIRHAEVLDEGELALRPLRNAKAEASFVLSGGDDVLESRFSFYGFRYAQITGIDVTDAQVEAVVLHSDMERTGWFTSSHALVNRLHENVVWGMRGNFLALPTDCPQRDERLGWTGDLQVFAPTASFLYDCDGFLTSWLRDLALEQERAGGIVPLVIPAALPSFAGGGPVAAWGDAAAVTPTVLHERFGDIGVLAAQYPSMRAWVEAVRADAGDSGLWAGRMQLGDWLDPSAPPDQPGKAKVDGDIVATAYFARSLRQVAEAAALLENTADAETYHALAERSRRAFVSEYVTPAGRMMSDAPTAYALALAFDLVQDAPTRAALADRLAALVRESGYRISTGFVGTPIIADALSDGGHHDAAERLLLQTQCPSWLYPVTQGATTVWERWDSLLPDGSVNPGEMTSFNHYALGAVADWLHRTVAGLAPAAPGYRRLRVAPRPLAAFEHASARHLTAYGPAEVSWEREPGSDVVRVRAIVPPNTTAEVALPGTLADGSEAPAEVGSGTHEWRVTLPAVPVRPPLPGLEAMLADVIDDPRAYAALLDALEETAPERVEGVRSGTVWGAGRPLASALMFTPPDVLARVDRAVRDATA
**Q.** For B1, which “QS-17 (PAR %)” value [1] is on record?
**A.** The value was 0.000%.

**Q.** What about the “Left Peak” value [2] of the same molecule?
**A.** The value was 25%.

**Q.** What about the “Middle Peak” value [2] of the same molecule?
**A.** Its value is 49%.

**Q.** What about the “Right Peak” value [2] of the same molecule?
**A.** Its value is 27%.

**Q.** What about the “ratio PP/QS-21” value [3] of the same molecule?
**A.** Its value is 0.16.

**Q.** What about the “Left Peak” value [4] of the same molecule?
**A.** The value was 9%.

**Q.** What about the “Middle Peak” value [4] of the same molecule?
**A.** The value was 62%.

**Q.** What about the “Right Peak” value [4] of the same molecule?
**A.** Its value is 30%.

**Q.** What about the “Peak75 (PAR %)” value [5] of the same molecule?
**A.** Its value is 0.000%.

**Q.** What about the “Peak57 (PAR %)” value [6] of the same molecule?
**A.** Its value is 0.000%.

B2: 1003 (protein, listed as Rahnella aquatilis)
chain: MPAVIRLTLNQESALSGVQQLPVLGWEIESRNRNVRQTAYRLQISQDQDFDNILLRGEWQESECSNNIPLTELMLTSSQHYFIRVQVRDNYGETSGWSSPAQMITGVLYPHEWLADFITAETSADKDNSHATLLRKSFVLNRAQDIQSAFIHVSALGLYELYLNGHKAGEDALTPGWTSYHNHLLYQTYDVTGHLEKGENVIGAILGAGWYKGDMGFSRHRNYYGERSALISQLVINYNDGSQEIVISDESWKGQDSAILFSEIYDGEIYDARREIPGWCTKDVSGEGWRPVSLVTHEKSTLVAQGSNTVRKMAEIKPVALITTPQGDTVIDFGQNLSGWVEFRVSGKAGDEVVLRHFEVLDADGNVYLDNLRTARQRTAYVLKGEGEEIWHPHFTWQGFRFVKVEEYPGQWDLNNFTAIVLHSAMEQTGHFACSNPQLNQLHHNILWGLKGNFVDVPTDCPQRDERLGWTGDAQIFCRTASYLMQTRNFFAKWLTDLRYDQTPEGGVPHVIPDILTGYCGKDRLLSEGGTHSASAWADAAVINPWTMYLMYGDTCVLENQYASMKGWIDFMTAHAENHIWHYKLQFGDWVALDAKEGSYFGATPNDLTCTAYYAYSTQLFAKAAKVLNRTEDYDHYHALYQAIVRRFQEAFFTPSGQLAARTQTAHILALYFNLVPDEFRQRTTDTLVELLNEHDGHLVTGFVGTPYFCHALSQNGRTKEAWNLLLKEDFPSWLYQVKAGATTVWEHWDGIKPDGSMWSADMNSFNHYAYGAVGEWLYRVAAGIEADEAQPGFKHFIIKPLTGGGLSWLDTRYQSIYGAIGVRWEVSGQTVFLNVTVPANTSATVVLTDGQSVQEADGIDFARCAEGYTAEVGSGEYRIEYRLV
**Q.** With B2 as the molecule, how does the “QS-17 (PAR %)” value [1] read?
**A.** The value was 0.000%.

**Q.** And the “Left Peak” value [2]?
**A.** Its value is 27%.

**Q.** What about the “Middle Peak” value [2] of the same molecule?
**A.** The value was 47%.

**Q.** What about the “Right Peak” value [2] of the same molecule?
**A.** The value was 26%.

**Q.** What about the “ratio PP/QS-21” value [3] of the same molecule?
**A.** The value was 0.19.

**Q.** And the “Left Peak” value [4]?
**A.** Its value is 7%.

**Q.** What about the “Middle Peak” value [4] of the same molecule?
**A.** Its value is 63%.

**Q.** What about the “Right Peak” value [4] of the same molecule?
**A.** Its value is 31%.

**Q.** What about the “Peak75 (PAR %)” value [5] of the same molecule?
**A.** Its value is 0.000%.

**Q.** What about the “Peak57 (PAR %)” value [6] of the same molecule?
**A.** Its value is 0.000%.

B3: 990 (protein, listed as Streptomyces bingchenggensis)
chain: MISRRNLLGTATAAGPALTGLTALAATTGKAEAAEPGYGGLRVEKTTVEYADRPLGLDAPHPRLSWQLGSDRRNQSQSAYQLRVATSPGRIGAPDVWDSGKVSSHQSVLVPYDGPKLRARTRYHWAVRVWDGQGRPSPWSEPTWWETGLGTEDEGAARWVAAPDTVTRGPDLAKADWVWYPEGDPASSAPAGTRYFRGSLDVSGSVRLARLALVADDGFTAWVNGTEIGGRAPVQENWRHPVVVDVTALLREGANTIAVAAVNASSSPAGLLGVLELTDTDGVRSLTTSAAWKATDTEPSGDWHLPAYDDGGWAAAKVLAPWGGGPWGRVRAAQRPALVRRDFRLAAKPVARARLYSTALGLYEAEINGHRVGRDQLAPGWTDYRKRVQYQTYDVTDLLRHGANAIGVILASGWYSGSVAWFGQELYGERPALRAELEVTYADGSTDRVTADTHWRCATGPILTADLMAGEEYDARLEVSGWSSPAFDDSLWQSVDVVPADTTSAVSVVAQTDAPVRVARELAAVRVTEPKPGVYVFDLGQNMVGSVRLRVRGEAGRTVRLRHAEVLDKDGMLYTANLRTAQATDSYTLKGSGTETFEPRFTFHGFRYVEVTGYPGTPDTKSVTGRVMHTGAPFTMSFTTDVPMLDQLHRNITWGQRGNFLSVPTDTPARDERLGWTGDINVFSATAAYTMESARFLAKWLRDLRDGQSDAGAFPDVAPRIGNLGEGTAGWGDAGVTVPWNLYQAYGDRQILADNFPAMRAWITYLEQHSSGCLRPAEGYGDWLNVADETPKDVIATAYFAHSTQLVAKAARVLGHDPAPYDTLAAKVREAFNRAYVSADGTVKGNTQTAYVLALSMDLLPDSARTPAAERLVELIRSKDRHLSTGFLGTPRLLPTLTATGHTDVAYQLLEQRTFPSWGYQIDRGSTTMWERWDSLRPDGSFQDPGMNSFNHYAYGSVGEWMYQNITGIGMGEPGFRSIVIRPRPGGDVHEANGRYDSLYGPITTRWTRANDGAFTLDVSVPVNTTAEVWLPAATSRAASGISHAGATFLRLDDGCAVYGVGSGPYRFTAP
**Q.** For B3, which “QS-17 (PAR %)” value [1] is on record?
**A.** The value was 5.144%.

**Q.** What about the “Left Peak” value [2] of the same molecule?
**A.** The value was 25%.

**Q.** What about the “Middle Peak” value [2] of the same molecule?
**A.** The value was 47%.

**Q.** What about the “Right Peak” value [2] of the same molecule?
**A.** Its value is 28%.

**Q.** And the “ratio PP/QS-21” value [3]?
**A.** Its value is 0.21.

**Q.** What about the “Left Peak” value [4] of the same molecule?
**A.** Its value is 23%.

**Q.** And the “Middle Peak” value [4]?
**A.** Its value is 51%.

**Q.** What about the “Right Peak” value [4] of the same molecule?
**A.** The value was 26%.

**Q.** What about the “Peak75 (PAR %)” value [5] of the same molecule?
**A.** Its value is 2.151%.

**Q.** And the “Peak57 (PAR %)” value [6]?
**A.** The value was 0.188%.

B4: 992 (protein, listed as Roseburia intestinalis)
chain: MGKIYAAKTNHITNPIGFNMDSIAFSWKVKGCRGQEQKYARIVISKNKTFTDICYDTGETELDSLSTRVEFEIQPYTRYYWKVIVTTDVEEVIESDVQFFETAKMDEPWTGRWITCDSSQERHPIFSKRIEPKKEVKSARLYICGLGLYEAYFLGENKENPKKIGDEYLTPYCNNYDRWIQYQTYDITEQAERGGVLSVLLGNGWYKGRFGFNDPEREAYYGDEWKLIAEVHIEYKDGTKDVISSDETWSVTRSNLWFSNIYDGERRDDTLPPVEESPARIAKAPKGRLMERLSLPVKVQEEMKPAELIHTPAGEDVFDLGQEITGIFQLRVNEPSGTIIRIQTGEILQDGCFYNENLRTALSEYVYVSDGMEKVIIPHFTYYGYRYVKVSGVTNLSCEDFMAIVLYSDYESIGTVETGSELVNKLISNIEWGMKGNFLDVPTDCPQRDERMGWTGDTQVFSATASYLADTYAFYRKYLYDLYQEQLLAGGMVPEIVPTFGPTKCSCAWGDAACIIPWNVYLFSGDKTILENQIESMKAWVDYIRRIDGDHHGWRQVFHYGDWLALDRTGAAANSVYGATDEAYIADIYYAASAQIVAKAAEVLGLEETRQEYHKIADRQWQVVKEEYFTATGRCAVKTQTGLILALKYHLSENEELTREMLKKLLRDNKNKLNTGFVGTPLLCNVLTDHGMTDAAYRLLLNEEYPGWLHEVKLGATTVWERWNSLDESGHVSSTGMNSLNHYSYGAILEWIFRHAAGIDVMEQSPGGKVMRISPKVNSELKYVKAVYDSATGCYQCGWEILEGNKITITVTVPFGGKAEVVLPYAPECIYEDIENPLFEAVENGICHVKAGEYEVVYEASEPLKKRYSIDSTMEELLNHPDIRAFLSQMVEVDMIPDIAYGLSLRDVAKTFAGEIKPDEAQMLDKALAKF
**Q.** Which results are given for B4?
**A.** QS-17 (PAR %) [1]: 0.000%; Left Peak [2]: 21%; Middle Peak [2]: 49%; Right Peak [2]: 30%; ratio PP/QS-21 [3]: 0.20; Left Peak [4]: 7%; Middle Peak [4]: 62%; Right Peak [4]: 31%; Peak75 (PAR %) [5]: 0.000%; Peak57 (PAR %) [6]: 0.000%

Source: patent publication US20240026407A1, “MODIFICATION OF SAPONINS” (GLAXOSMITHKLINE BIOLOGICALS SA, priority 2020, published 2024)
